# Patent publication US20030087395A1, “Cardiotrophin-like cytokine” (Human Genome Sciences, Inc., priority 1997, published 2003)
# How the values were obtained:
# Primary cardiomyocytes = assay: Cardiac myocyte hypertrophy, cell counts in culture; assay type: cell-based; settings: counted 48 to 72 hours post-treatment; four fields in three independent cultures, averaged
# Protocol: (§1) Primary cardiomyocytes, primary neuronal cultures, or other cells are plated at a low density and cultured using standard culturing techniques. […] Cultures are evaluated at a point between 48 and 72 hours post-treatment by counting the number of cells in four non-overlapping fields in three independent cultures and averaging the results.
# [1] = test system: primary neuronal cultures (sympathetic neuron counts); assay: Neuron counts in primary neuronal cultures; assay type: cell-based; settings: counted 48 to 72 hours post-treatment; four fields in three independent cultures, averaged
# Protocol: as §1
# M1 cells [2] = assay: Protein tyrosine phosphorylation after anti-gp130 immunoprecipitation; assay type: cell-based; settings: M1 cells treated with CLC or LIF supernatant; band of apparent molecular mass 32 kDa
# Protocol: Because of the wide range of known factors capable of stimulating tyrosine kinase activity, identifying whether CLC or a molecule induced by CLC is capable of activating tyrosine kinase signal transduction pathways is of interest. Therefore, the following protocol is designed to identify such molecules capable of activating the tyrosine kinase signal transduction pathways.
# Seed NIH-3T3 cells in 15 cm^2 cell culture plates in DMEM supplemented with Pen/Strep, 10% FBS, 25 mM Hepes. […] At the point the experiment begins, the cells should be 80-90% confluent. Collect M1 cells in 50 ml tube and centrifuge 1000 rpm for 5 min. Resuspend the cell pellet in “quiescing medium” which is RPMI supplemented with Pen/Strep, glutamine. (It is important to note that quiescing medium contains neither serum nor growth factors.) Centrifuge again at 1000 rpm for 5 min to wash the cells. Again, resuspend the cells in quiescing medium. Incubate the M1 cells in quiescing medium for 16 hours at 37° C.
# Pre-warm quiescing medium (for Ml cells) and a metal tube rack to 37° C. Pre-cool quiescing media (for NIH-3T3 cells) and sterile Eppendorf tubes containing 0.5 ml of sample. […] Resuspend M1 cells to 5.0×10^7 cells per 0.5 ml quiescing media. Place all tubes on per warmed metal rack and leave at 37° C. until ready to begin. Add samples to these pre-aliquoted tubes. […]
# STATS = settings: numbers of the STATs activated; adapted from Schidler and Darnell review; cited from earlier work
# M1 cells [3] = assay: M1 cell proliferation by BrdU incorporation; assay type: cell-based; settings: dose of 100 μL, 72 hours
# Protocol: The effect of CLC on cellular proliferation can be assayed in M1 cells by BrdU incorporation. 1×10^4 cells/100 μL are dispensed into 96-well cell culture plates and labeled with 10 μL BrdU. CLC is added to the cells at several doses (0, 5, 25, and 100 μL) and LIF is added to the cells as a positive control at a dose of 100 μL. The cells are allowed to grow for 72 hours at 37° C. The amount of BrdU incorporation is determined by the Cell Proliferation ELISA BrdU colorimetric kit (Boehringer Mannheim).
# GAS or ISRE = settings: element bound; adapted from Schidler and Darnell review; cited from earlier work
Molecule,No. Active Myocytes (Primary cardiomyocytes),No. Neurons [1],band of tyrosine-phosphorylated protein in cell extracts (M1 cells [2]),STATS (STATS),inhibition of M1 cell proliferation with respect to the negative control (M1 cells [3]),GAS or ISRE (GAS or ISRE)
"CNC[C@H](O)c1cccc(O)c1 [Phenylephrine, reference compound]",92,28,,,,
"LIF: leukemia inhibitory factor, IL-6 family cytokine used as positive control for CLC [reference compound]",,,produced a band of phosphorylated protein,"1,3",4.8 fold,
"IL-7: g-C family ligand (lymphocytes) (protein, UniProt P13232 26-177, looked up) Interleukin-7: DCDIEGKDGKQYESVLMVSIDQLLDSMKEIGSNCLNNEFNFFKRHICDANKEGMFLFRAARKLRQFLKMNSTGDFDLHLLKVSEGTTILLNCTGQVKGRKPAALGEAQPTKSLEENKSLKEQKKLNDLCFLKRLLQEIKTCWNKILMGTKEH",,,,5,,GAS
"CSF-1: ligand of Receptor Tyrosine Kinases (protein, UniProt P09603 33-554, looked up) Macrophage colony-stimulating …: EEVSEYCSHMIGSGHLQSLQRLIDSQMETSCQITFEFVDQEQLKDPVCYLKKAFLLVQDIMEDTMRFRDNTPNAIAIVQLQELSLRLKSCFTKDYEEHDKACVRTFYETPLQLLEKVKNVFNETKNLLDKDWNIFSKNCNNSFAECSSQDVVTKPDCNCLYPKAIPSSDPASVSPHQPLAPSMAPVAGLTWEDSEGTEGSSLLPGEQPLHTVDPGSAKQRPPRSTCQSFEPPETPVVKDSTIGGSPQPRPSVGAFNPGMEDILDSAMGTNWVPEEASGEASEIPVPQGTELSPSRPGGGSMQTEPARPSNFLSASSPLPASAKGQQPADVTGTALPRVGPVRPTGQDWNHTPQKTDHPSALLRDPPEPGSPRISSLRPQGLSNPSTLSAQPQLSRSHSSGSVLPLGELEGRRSTRDRRSPAEPEGGPASEGAARPLPRFNSVPLTDTGHERQSEGSFSPQLQESVFHLLVPSVILVLLAVGGLLFYRWRRRSHQEPQRADSPLEQPEGSPLTQDDRQVELPV",,,,"1,3",,GAS (not
"IL-4: g-C family ligand (lymph/myeloid) (protein, UniProt P05112 25-153, looked up) Interleukin-4: HKCDITLQEIIKTLNSLTEQKTLCTELTVTDIFAASKNTTEKETFCRAATVLRQFYSHHEKDTRCLGATAQQFHRHKQLIRFLKRLDRNLWGLAGLNSCPVKEANQSTLENFLERLKTIMREKYSKCSS",,,,6,,GAS
